{"source": "patent US7169889B1", "about": "“Insulin prodrugs hydrolyzable in vivo to yield peglylated insulin” (priority 1999, dated 2007)", "key": {"male CF-1 mice [1]": {"test_system": "male CF-1 mice", "experiment": "Mouse blood glucose assay (potency evaluation)", "format": "in vivo", "details": "for Potency: subcutaneous injection, blood glucose 30 minutes post-dose, calculated relative to bovine insulin standard curve", "procedure": "Six paired dose groups of 5 male CF-1 mice (˜25 g unfasted) received subcutaneous injections of either bovine insulin or modified insulin. Pre- and post-experimental baselines were established with two vehicle groups. An additional 25 μg/kg insulin dose group served as the internal control. Mice were terminally bled 30 minutes post-dose and blood glucose was measured with a glucometer (ONE TOUCH®). The biological potency of the modified insulin was then calculated relative to a bovine insulin standard curve."}, "male CF-1 mice [2]": {"test_system": "male CF-1 mice", "details": "bovine insulin standard; assumed potency used for calculations; cited from earlier work"}, "pancreatectomized dogs": {"test_system": "pancreatectomized dogs", "experiment": "Oral activity in pancreatectomized diabetic dogs (plasma glucose and insulin)", "format": "in vivo", "details": "for Dmax: microemulsion, N = 2", "procedure": "Two dogs were used for each compound. Compounds are formulated in water in oil microemulsion and evaluated at a dose of 1-2 mg/kg. Twenty milliliters of the formulation was administered orally to each dog and the formulations were chased with 20 ml of water. Plasma glucose and insulin levels were monitored at different time intervals."}}, "note": "Read-outs that look alike come from different tables or passages of the source."}
{"substance": "Insulin PEG9 Oleate: insulin mono-conjugated with hydrolyzable PEG9 oleate ester oligomer", "values": [{"measurement": "Potency", "setting": "male CF-1 mice [1]", "value": 19.0, "unit": "IU/mg"}]}
{"substance": "Insulin PEG10 Oleyl Ether: nonhydrolyzable insulin mono-conjugate with PEG10 oleyl ether oligomer", "values": [{"measurement": "Potency", "setting": "male CF-1 mice [1]", "value": 0.0, "unit": "IU/mg"}]}
{"substance": "Insulin PEG3 Methyl Ether: insulin mono-conjugated with methyl triethylene glycol", "values": [{"measurement": "in vivo biological activity (potency assay), in words", "setting": "male CF-1 mice [1]; mouse blood glucose assay, Table 2", "value": "best result"}, {"measurement": "Potency", "setting": "male CF-1 mice [1]", "value": 43.6, "unit": "IU/mg"}]}
{"substance": "Bovine insulin: bovine insulin standard, assumed potency 27.5 IU/mg", "values": [{"measurement": "Potency", "setting": "male CF-1 mice [2]", "value": 27.5, "unit": "IU/mg"}]}
{"substance": "Insulin PEG9 Stearate: insulin mono-conjugated with hydrolyzable PEG9 stearate ester oligomer", "values": [{"measurement": "Potency", "setting": "male CF-1 mice [1]", "value": 15.3, "unit": "IU/mg"}]}
{"substance": "PEG3-insulin: methyl triethylene glycol insulin conjugates formulated in microemulsion", "values": [{"measurement": "Cmax", "setting": "pancreatectomized dogs; dog, in vivo, po, 2 mg/kg", "value": 181, "unit": "μU/ml"}, {"measurement": "glucose reduction, in words", "setting": "pancreatectomized dogs; oral, formulated in microemulsion, pancreatectomized dogs", "value": "good glucose reduction"}, {"measurement": "Dmax", "setting": "pancreatectomized dogs; oral, dose 2 mg/kg", "value": 62, "unit": "%"}]}
{"substance": "Insulin PEG9 Hexanoate: insulin mono-conjugated with hydrolyzable PEG9 hexanoate ester oligomer", "values": [{"measurement": "Potency", "setting": "male CF-1 mice [1]", "value": 21.3, "unit": "IU/mg"}]}
{"substance": "PEG3-oleate-insulin conjugate: insulin conjugated with hydrolyzable triethylene glycol oleate oligomer, in microemulsion", "values": [{"measurement": "Dmax", "setting": "pancreatectomized dogs; oral, dose 1 mg/kg", "value": 49, "unit": "%"}]}
{"substance": "Galactosamine-PEG14-insulin conjugate", "values": [{"measurement": "Dmax", "setting": "pancreatectomized dogs; oral, dose 2 mg/kg", "value": 52, "unit": "%"}]}
